Experimental findings from article PMC11275212, “Eukaryotic Pif1 helicase unwinds G-quadruplex and dsDNA using a conserved wedge” (Nature Communications, 2024) are described below.

Usually Kd stands for a measure of binding affinity in units of concentration.

Series [1] addresses T1, ScPif1 (Saccharomyces cerevisiae Pif1, residues 236–753) (Saccharomyces cerevisiae, UniProt P07271).
T1 construct: helicase core domain, residues 236-753; N-terminal SUMO tag (pET28a) cleaved by Ulp protease; E. coli BL21; monomer on G4 DNA
T1 sequence (P07271 236-753): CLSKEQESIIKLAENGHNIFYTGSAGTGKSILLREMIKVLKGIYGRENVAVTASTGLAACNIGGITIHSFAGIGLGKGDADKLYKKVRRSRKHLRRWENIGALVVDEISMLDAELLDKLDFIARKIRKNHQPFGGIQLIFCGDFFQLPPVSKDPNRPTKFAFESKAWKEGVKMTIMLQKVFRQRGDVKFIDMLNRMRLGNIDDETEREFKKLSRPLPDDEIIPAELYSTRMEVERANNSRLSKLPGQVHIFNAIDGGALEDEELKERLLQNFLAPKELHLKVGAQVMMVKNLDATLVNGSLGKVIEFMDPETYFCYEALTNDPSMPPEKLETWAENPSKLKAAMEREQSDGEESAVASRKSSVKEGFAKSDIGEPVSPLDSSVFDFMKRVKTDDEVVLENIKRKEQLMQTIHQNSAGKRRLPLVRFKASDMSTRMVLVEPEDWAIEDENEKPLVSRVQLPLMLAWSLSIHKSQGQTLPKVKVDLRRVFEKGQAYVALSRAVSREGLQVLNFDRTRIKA
As to the kind of experiment: ATP hydrolysis assay. Particulars: ATPase rate only in supplement. It is filed as biochemical.

The next series has as its target T2, ScPif1 (Saccharomyces cerevisiae, UniProt P07271 236-753).
T2 sequence: T1 sequence (P07271 236-753)
Briefly: fluorescence anisotropy; no nucleotide; Fluorescence anisotropy: 20 mM HEPES-NaOH pH 7.5, 100 mM NaCl, 10% glycerol, 20 C, 10 nM FAM-DNA, 30 min, quadratic fit. The settings on record: protein: recombinant, tags: N-terminal SUMO tag (Ni-NTA purified), cleaved by Ulp protease, label: 3' 6-FAM. A general note: In fluorescence polarisation assays a small probe gives low polarisation when free and higher when bound to something large.

In the next series the target is T3, ScPif1 R324Y (Saccharomyces cerevisiae, UniProt P07271 236-753, R324Y).
T3 sequence: T1 sequence (P07271 236-753) with R89Y
The series is described as above. Particulars: protein: recombinant; tags: N-terminal SUMO tag, cleaved; label: 3' 6-FAM; parallel intramolecular G4.

In another series the target is T4, ScPif1 R324A (Saccharomyces cerevisiae, UniProt P07271 236-753, R324A).
T4 sequence: T1 sequence (P07271 236-753) with R89A
The series is described as above. Particulars: protein: recombinant; tags: N-terminal SUMO tag, cleaved; label: 3' 6-FAM; parallel intramolecular G4.

A further series has as its target T5, ScPif1 R324W (Saccharomyces cerevisiae, UniProt P07271 236-753, R324W).
T5 sequence: T1 sequence (P07271 236-753) with R89W
The series is described as above. Particulars: protein: recombinant; tags: N-terminal SUMO tag, cleaved; label: 3' 6-FAM; parallel intramolecular G4.

In another series the target is T6, ScPif1 R324E (Saccharomyces cerevisiae, UniProt P07271 236-753, R324E).
T6 sequence: T1 sequence (P07271 236-753) with R89E
The series is described as above. Particulars: protein: recombinant; tags: N-terminal SUMO tag, cleaved; label: 3' 6-FAM; parallel intramolecular G4.

Substitutions are numbered along the chain they refer to.

As for `Nc1ncnc2c1ncn2[C@@H]1O[C@H](COP(=O)(O)OP(=O)(O)OP(=O)(O)O)[C@@H](O)[C@H]1O` [ATP], the ATP hydrolysis assay result in series [1] was “they hydrolyze ATP at a similar rate to WT ScPif1”.
Regarding TTTTTTTTGGTGGTGGTTGTTGTGGTGGTGGTGGT (structured_DNA) [T7-AT11-FAM], the dissociation constant (Kd) with ScPif1 (parallel intramolecular G4 with 5' ssDNA tail) is 7.23 nM.
Take TTTTTTT (ssDNA) [T7-FAM]: in the series with ScPif1 (single strand), the Kd was 12.8 nM.
TGGTGGTGGTTGTTGTGGTGGTGGTGGT (structured_DNA) [AT11-FAM]: the Kd with ScPif1 R324Y came to 10.9 nM; in the series with ScPif1 (parallel intramolecular G4), 11.2 nM; with ScPif1 R324A, 11.8 nM; with ScPif1 R324W, 9.57 nM; with ScPif1 R324E it was 25.6 nM.
